Non-standard residues stand in square brackets, D forms with d.
B1: ZP-0181 (peptide)
peptide: Ac-[dH][dH][dT][dL][dV][dA]-NH2
SMILES: CC(=O)N[C@H](Cc1c[nH]cn1)C(=O)N[C@H](Cc1c[nH]cn1)C(=O)N[C@@H](C(=O)N[C@H](CC(C)C)C(=O)N[C@@H](C(=O)N[C@H](C)C(N)=O)C(C)C)[C@H](C)O
B2: ZP-0228 (peptide)
peptide: H-[dP][dY][dS][dV][dL][dI]-NH2
SMILES: CC[C@@H](C)[C@@H](NC(=O)[C@@H](CC(C)C)NC(=O)[C@H](NC(=O)[C@@H](CO)NC(=O)[C@@H](Cc1ccc(O)cc1)NC(=O)[C@H]1CCCN1)C(C)C)C(N)=O
B3: ZP-0159 (peptide)
peptide: Ac-[dH][dH][dV][dV][dV][dA]-NH2
SMILES: CC(=O)N[C@H](Cc1c[nH]cn1)C(=O)N[C@H](Cc1c[nH]cn1)C(=O)N[C@@H](C(=O)N[C@@H](C(=O)N[C@@H](C(=O)N[C@H](C)C(N)=O)C(C)C)C(C)C)C(C)C
B4: ZP-0214 (peptide)
peptide: Ac-[dD][dR][dY][dS][dV][dL][dI]-NH2
SMILES: CC[C@@H](C)[C@@H](NC(=O)[C@@H](CC(C)C)NC(=O)[C@H](NC(=O)[C@@H](CO)NC(=O)[C@@H](Cc1ccc(O)cc1)NC(=O)[C@@H](CCCNC(=N)N)NC(=O)[C@@H](CC(=O)O)NC(C)=O)C(C)C)C(N)=O
B5: ZP-0205 (peptide)
peptide: Ac-[dQ][dY][dS][dP][dL][dI]-NH2
SMILES: CC[C@@H](C)[C@@H](NC(=O)[C@@H](CC(C)C)NC(=O)[C@H]1CCCN1C(=O)[C@@H](CO)NC(=O)[C@@H](Cc1ccc(O)cc1)NC(=O)[C@@H](CCC(N)=O)NC(C)=O)C(N)=O
B6: ZP-0212 (peptide)
peptide: Ac-[dR][dY][dS][dV][dL][dI]-NH2
SMILES: CC[C@@H](C)[C@@H](NC(=O)[C@@H](CC(C)C)NC(=O)[C@H](NC(=O)[C@@H](CO)NC(=O)[C@@H](Cc1ccc(O)cc1)NC(=O)[C@@H](CCCNC(=N)N)NC(C)=O)C(C)C)C(N)=O
B7: ZP-0215 (peptide)
peptide: H-[dQ][dY][dS][dV][dL][dI]-NH2
SMILES: CC[C@@H](C)[C@@H](NC(=O)[C@@H](CC(C)C)NC(=O)[C@H](NC(=O)[C@@H](CO)NC(=O)[C@@H](Cc1ccc(O)cc1)NC(=O)[C@H](N)CCC(N)=O)C(C)C)C(N)=O
B8: ZP-0207 (peptide)
peptide: Ac-[dQ][dP][dS][dV][dL][dI]-NH2
SMILES: CC[C@@H](C)[C@@H](NC(=O)[C@@H](CC(C)C)NC(=O)[C@H](NC(=O)[C@@H](CO)NC(=O)[C@H]1CCCN1C(=O)[C@@H](CCC(N)=O)NC(C)=O)C(C)C)C(N)=O
B9: ZP-0160 (peptide)
peptide: Ac-[dH][dH][dV][dL][dV][dA]-NH2
SMILES: CC(=O)N[C@H](Cc1c[nH]cn1)C(=O)N[C@H](Cc1c[nH]cn1)C(=O)N[C@@H](C(=O)N[C@H](CC(C)C)C(=O)N[C@@H](C(=O)N[C@H](C)C(N)=O)C(C)C)C(C)C
B10: ZP-0180 (peptide)
peptide: Ac-[dH][dH][dT][dV][dV][dA]-NH2
SMILES: CC(=O)N[C@H](Cc1c[nH]cn1)C(=O)N[C@H](Cc1c[nH]cn1)C(=O)N[C@@H](C(=O)N[C@@H](C(=O)N[C@@H](C(=O)N[C@H](C)C(N)=O)C(C)C)C(C)C)[C@H](C)O
B11: ZP-0193 (peptide)
peptide: Ac-[dH][dH][dT][dE][dV][dY]-NH2
SMILES: CC(=O)N[C@H](Cc1c[nH]cn1)C(=O)N[C@H](Cc1c[nH]cn1)C(=O)N[C@@H](C(=O)N[C@H](CCC(=O)O)C(=O)N[C@@H](C(=O)N[C@H](Cc1ccc(O)cc1)C(N)=O)C(C)C)[C@H](C)O
B12: ZP-0229 (peptide)
peptide: H-[dQ][dY][dS][dV][dL][dV]-NH2
SMILES: CC(C)C[C@@H](NC(=O)[C@H](NC(=O)[C@@H](CO)NC(=O)[C@@H](Cc1ccc(O)cc1)NC(=O)[C@H](N)CCC(N)=O)C(C)C)C(=O)N[C@@H](C(N)=O)C(C)C
B13: ZP-0179 (peptide)
peptide: Ac-[dH][dH][dT][dI][dV][dK]-NH2
SMILES: CC[C@@H](C)[C@@H](NC(=O)[C@H](NC(=O)[C@@H](Cc1c[nH]cn1)NC(=O)[C@@H](Cc1c[nH]cn1)NC(C)=O)[C@H](C)O)C(=O)N[C@@H](C(=O)N[C@H](CCCCN)C(N)=O)C(C)C
B14: ZP-0186 (peptide)
peptide: Ac-[dH][dH][dT][dL][dV][dV]-NH2
SMILES: CC(=O)N[C@H](Cc1c[nH]cn1)C(=O)N[C@H](Cc1c[nH]cn1)C(=O)N[C@@H](C(=O)N[C@H](CC(C)C)C(=O)N[C@@H](C(=O)N[C@@H](C(N)=O)C(C)C)C(C)C)[C@H](C)O
B15: ZP-0222 (peptide)
peptide: H-[dQ][dY][dK][dV][dL][dI]-NH2
SMILES: CC[C@@H](C)[C@@H](NC(=O)[C@@H](CC(C)C)NC(=O)[C@H](NC(=O)[C@@H](CCCCN)NC(=O)[C@@H](Cc1ccc(O)cc1)NC(=O)[C@H](N)CCC(N)=O)C(C)C)C(N)=O
B16: ZP-0221 (peptide)
peptide: H-[dQ][dY][dT][dV][dL][dI]-NH2
SMILES: CC[C@@H](C)[C@@H](NC(=O)[C@@H](CC(C)C)NC(=O)[C@H](NC(=O)[C@H](NC(=O)[C@@H](Cc1ccc(O)cc1)NC(=O)[C@H](N)CCC(N)=O)[C@H](C)O)C(C)C)C(N)=O
B17: ZP-0206 (peptide)
peptide: Ac-[dQ][dY][dP][dV][dL][dI]-NH2
SMILES: CC[C@@H](C)[C@@H](NC(=O)[C@@H](CC(C)C)NC(=O)[C@H](NC(=O)[C@H]1CCCN1C(=O)[C@@H](Cc1ccc(O)cc1)NC(=O)[C@@H](CCC(N)=O)NC(C)=O)C(C)C)C(N)=O
B18: ZP-0213 (peptide)
peptide: Ac-[dE][dK][dY][dS][dV][dL][dI]-NH2
SMILES: CC[C@@H](C)[C@@H](NC(=O)[C@@H](CC(C)C)NC(=O)[C@H](NC(=O)[C@@H](CO)NC(=O)[C@@H](Cc1ccc(O)cc1)NC(=O)[C@@H](CCCCN)NC(=O)[C@@H](CCC(=O)O)NC(C)=O)C(C)C)C(N)=O
B19: ZP-0204 (peptide)
peptide: Ac-[dQ][dY][dS][dV][dP][dI]-NH2
SMILES: CC[C@@H](C)[C@@H](NC(=O)[C@H]1CCCN1C(=O)[C@H](NC(=O)[C@@H](CO)NC(=O)[C@@H](Cc1ccc(O)cc1)NC(=O)[C@@H](CCC(N)=O)NC(C)=O)C(C)C)C(N)=O
B20: ZP-0202 (peptide)
peptide: Ac-[dQ][dY][dK][dV][dL][dI]-NH2
SMILES: CC[C@@H](C)[C@@H](NC(=O)[C@@H](CC(C)C)NC(=O)[C@H](NC(=O)[C@@H](CCCCN)NC(=O)[C@@H](Cc1ccc(O)cc1)NC(=O)[C@@H](CCC(N)=O)NC(C)=O)C(C)C)C(N)=O
B21: ZP-0194 (peptide)
peptide: Ac-[dH][dH][dT][dT][dV][dY]-NH2
SMILES: CC(=O)N[C@H](Cc1c[nH]cn1)C(=O)N[C@H](Cc1c[nH]cn1)C(=O)N[C@@H](C(=O)N[C@@H](C(=O)N[C@@H](C(=O)N[C@H](Cc1ccc(O)cc1)C(N)=O)C(C)C)[C@H](C)O)[C@H](C)O

Biological target: α-synuclein (UniProt P37840 1-140)
Assay: cell-based or functional assay
Note: test concentration or dose not given here.

% decrease in ThT fluorescence [%] | % decrease in rate of aggregation [%] | % increase in Lag phase [%] | Binder
22.8 | -1.2 | 29.4 | B1
40.8 | 46.2 | 38.2 | B2
19.8 | 18.6 | 36.6 | B3
20.4 | 4.8 | -12.6 | B4
16.6 | -11.9 | 30.6 | B5
51.1 | 44.9 | -14.4 | B6
27.6 | 17.5 | 3.1 | B7
5.5 | 3.6 | 29.7 | B8
8.8 | 10.5 | 36.5 | B9
19.8 | 18.4 | 30.3 | B10
8.7 | -15.8 | 31.4 | B11
17.8 | 24.3 | 33.5 | B12
0.6 | -0.6 | 30.4 | B13
30.7 | 29.7 | 16.1 | B14
42.3 | 34.3 | 7.7 | B15
24.7 | 22.8 | -22.4 | B16
3.3 | 8.4 | 25.9 | B17
25.6 | 12.9 | 29.4 | B18
1.4 | -5.6 | 23.6 | B19
53.5 | 54.5 | -28.8 | B20
11.6 | 7.7 | 38.8 | B21

Source: US8290713 (LONZA BIOLOGICS, dated 2012)
